Test results: patent US20210388087A1 (Chugai, published 2021)
Positions count from the first letter of the chain named.

T1: Human CD3eg linker (human)
T1 construct: single-chain construct; also called recombinant human CD3
T1 chain: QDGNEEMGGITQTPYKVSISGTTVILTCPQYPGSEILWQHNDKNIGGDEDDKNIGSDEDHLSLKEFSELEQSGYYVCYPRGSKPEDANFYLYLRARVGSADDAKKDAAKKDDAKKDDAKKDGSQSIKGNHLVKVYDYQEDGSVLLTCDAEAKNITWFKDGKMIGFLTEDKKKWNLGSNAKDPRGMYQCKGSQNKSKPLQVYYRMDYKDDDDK

B1: dBBDu183H S100aG/dBBDu072L (antibody, name in Kabat numbering, V domains shown)
VH: QVQLVESGGGLVQPGRSLRLSCAASGFTFSNAWMHWVRQAPGKGLEWVAQIKDKGNAYAAYYAPSVKGRFTISRDDSKNSIYLQMNSLKTEDTAVYYCHYVHYASAGTVLPAFGVDAWGQGTTVTVSS
VL: DIVMTQSPLSLPVTPGEPASISCQASQELVHMNRNTYLHWYQQKPGQAPRLLIYKVSNRFPGVPDRFSGSGSGTDFTLKISRVEAEDVGVYYCAQGTSVPFTFGQGTKLEIK
B2: dBBDu183H S100aW/dBBDu072L (antibody, name in Kabat numbering, V domains shown)
VH: B1 VH with G107W
VL: B1 VL
B3: dBBDu183H S100aH/dBBDu072L (antibody, name in Kabat numbering, V domains shown)
VH: B1 VH with G107H
VL: B1 VL
B4: dBBDu183H T100bF/dBBDu072L (antibody, name in Kabat numbering, V domains shown)
VH: B1 VH with G107S, T108F
VL: B1 VL
B5: dBBDu183H S100aQ/dBBDu072L (antibody, name in Kabat numbering, V domains shown)
VH: B1 VH with G107Q
VL: B1 VL
B6: dBBDu183H S100aN/dBBDu072L (antibody, name in Kabat numbering, V domains shown)
VH: B1 VH with G107N
VL: B1 VL
B7: dBBDu183H S100aR/dBBDu072L (antibody, name in Kabat numbering, V domains shown)
VH: B1 VH with G107R
VL: B1 VL
B8: dBBDu183H S100aK/dBBDu072L (antibody, name in Kabat numbering, V domains shown)
VH: B1 VH with G107K
VL: B1 VL
B9: dBBDu183H T100bG/dBBDu072L (antibody, name in Kabat numbering, V domains shown)
VH: B1 VH with G107S, T108G
VL: B1 VL
B10: dBBDu183H S100aV/dBBDu072L (antibody, name in Kabat numbering, V domains shown)
VH: B1 VH with G107V
VL: B1 VL
B11: dBBDu183H T100bN/dBBDu072L (antibody, name in Kabat numbering, V domains shown)
VH: B1 VH with G107S, T108N
VL: B1 VL
B12: dBBDu183H T100bD/dBBDu072L (antibody, name in Kabat numbering, V domains shown)
VH: B1 VH with G107S, T108D
VL: B1 VL
B13: dBBDu183H T100bQ/dBBDu072L (antibody, name in Kabat numbering, V domains shown)
VH: B1 VH with G107S, T108Q
VL: B1 VL
B14: dBBDu183H T100bE/dBBDu072L (antibody, name in Kabat numbering, V domains shown)
VH: B1 VH with G107S, T108E
VL: B1 VL
B15: dBBDu183H S100aT/dBBDu072L (antibody, name in Kabat numbering, V domains shown)
VH: B1 VH with G107T
VL: B1 VL
B16: dBBDu183H T100bH/dBBDu072L (antibody, name in Kabat numbering, V domains shown)
VH: B1 VH with G107S, T108H
VL: B1 VL
B17: dBBDu183H S100aY/dBBDu072L (antibody, name in Kabat numbering, V domains shown)
VH: B1 VH with G107Y
VL: B1 VL
B18: dBBDu183H T100bK/dBBDu072L (antibody, name in Kabat numbering, V domains shown)
VH: B1 VH with G107S, T108K
VL: B1 VL

Target: T1, Human CD3eg linker
Assay: SPR, vs unmutated H183/L072

| Binder | fold change of affinity [fold] |
| --- | --- |
| B1 | 1.2 |
| B2 | 1.6 |
| B3 | 1.1 |
| B4 | 1.2 |
| B5 | 0.5 |
| B6 | 0.8 |
| B7 | 0.6 |
| B8 | 0.9 |
| B9 | 1.1 |
| B10 | 1 |
| B11 | 1 |
| B12 | 0.6 |
| B13 | 1.1 |
| B14 | 0.6 |
| B15 | 0.9 |
| B16 | 1.2 |
| B17 | 1.2 |
| B18 | 1.3 |
